Measured values taken from patent US20220229068A1, “DETECTION OF PROTEIN TO PROTEIN INTERACTIONS” (THE GOVERNING COUNCIL OF THE UNIVERSITY OF TORONTO, priority 2019, published 2022).

T1: FRS2 (prey, CIC format) (human) (UniProt Q8WU20)
T1 sequence (looked up): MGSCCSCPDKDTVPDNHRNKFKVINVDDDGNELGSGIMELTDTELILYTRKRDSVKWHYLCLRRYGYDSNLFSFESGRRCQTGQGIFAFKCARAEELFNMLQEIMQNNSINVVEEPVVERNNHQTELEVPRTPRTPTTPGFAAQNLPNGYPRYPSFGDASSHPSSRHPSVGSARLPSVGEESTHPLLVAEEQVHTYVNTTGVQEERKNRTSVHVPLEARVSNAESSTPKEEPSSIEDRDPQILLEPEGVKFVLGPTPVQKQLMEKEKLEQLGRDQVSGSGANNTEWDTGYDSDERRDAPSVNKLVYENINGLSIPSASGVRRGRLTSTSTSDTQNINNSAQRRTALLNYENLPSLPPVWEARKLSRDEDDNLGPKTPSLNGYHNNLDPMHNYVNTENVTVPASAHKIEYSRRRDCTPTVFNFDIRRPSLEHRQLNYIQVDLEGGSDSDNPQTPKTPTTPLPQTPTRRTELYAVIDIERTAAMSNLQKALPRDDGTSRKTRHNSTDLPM

B1: IFIT1 (bait, IN format) (protein, human, UniProt P09914 1-478, looked up)
chain: MSTNGDDHQVKDSLEQLRCHFTWELSIDDDEMPDLENRVLDQIEFLDTKYSVGIHNLLAYVKHLKGQNEEALKSLKEAENLMQEEHDNQANVRSLVTWGNFAWMYYHMGRLAEAQTYLDKVENICKKLSNPFRYRMECPEIDCEEGWALLKCGGKNYERAKACFEKVLEVDPENPESSAGYAISAYRLDGFKLATKNHKPFSLLPLRQAVRLNPDNGYIKVLLALKLQDEGQEAEGEKYIEEALANMSSQTYVFRYAAKFYRRKGSVDKALELLKKALQETPTSVLLHHQIGLCYKAQMIQIKEATKGQPRGQNREKLDKMIRSAIFHFESAVEKKPTFEVAHLDLARMYIEAGNHRKAEENFQKLLCMKPVVEETMQDIHFHYGRFQEFQKKSDVNAIIHYLKAIKIEQASLTRDKSINSLKKLVLRKLRRKALDLESLSLLGFVYKLEGNMNEALEYYERALRLAADFENSVRQGP
B2: PTPN11 (bait, IN format) (enzyme, human, UniProt Q06124 1-593, looked up)
chain: MTSRRWFHPNITGVEAENLLLTRGVDGSFLARPSKSNPGDFTLSVRRNGAVTHIKIQNTGDYYDLYGGEKFATLAELVQYYMEHHGQLKEKNGDVIELKYPLNCADPTSERWFHGHLSGKEAEKLLTEKGKHGSFLVRESQSHPGDFVLSVRTGDDKGESNDGKSKVTHVMIRCQELKYDVGGGERFDSLTDLVEHYKKNPMVETLGTVLQLKQPLNTTRINAAEIESRVRELSKLAETTDKVKQGFWEEFETLQQQECKLLYSRKEGQRQENKNKNRYKNILPFDHTRVVLHDGDPNEPVSDYINANIIMPEFETKCNNSKPKKSYIATQGCLQNTVNDFWRMVFQENSRVIVMTTKEVERGKSKCVKYWPDEYALKEYGVMRVRNVKESAAHDYTLRELKLSKVGQGNTERTVWQYHFRTWPDHGVPSDPGGVLDFLEEVHHKQESIMDAGPVVVHCSAGIGRTGTFIVIDILIDIIREKGVDCDIDVPKTIQMVRSQRSGMVQTEAQYRFIYMAVQHYIETLQRRIEEEQKSKRKGHEYTNIKYSLADQTSGDQSPLPPCTPTPPCAEMREDSARVYENVGLMQQQKSFR

Experiments:
Assay in all cases: SIMPL ELISA, bait-IN/prey-CIC
[1] = target: RELA (prey, CIC format) (human) (UniProt Q04206)
Sequence of RELA (prey, CIC format) (human) (Q04206 whole entry): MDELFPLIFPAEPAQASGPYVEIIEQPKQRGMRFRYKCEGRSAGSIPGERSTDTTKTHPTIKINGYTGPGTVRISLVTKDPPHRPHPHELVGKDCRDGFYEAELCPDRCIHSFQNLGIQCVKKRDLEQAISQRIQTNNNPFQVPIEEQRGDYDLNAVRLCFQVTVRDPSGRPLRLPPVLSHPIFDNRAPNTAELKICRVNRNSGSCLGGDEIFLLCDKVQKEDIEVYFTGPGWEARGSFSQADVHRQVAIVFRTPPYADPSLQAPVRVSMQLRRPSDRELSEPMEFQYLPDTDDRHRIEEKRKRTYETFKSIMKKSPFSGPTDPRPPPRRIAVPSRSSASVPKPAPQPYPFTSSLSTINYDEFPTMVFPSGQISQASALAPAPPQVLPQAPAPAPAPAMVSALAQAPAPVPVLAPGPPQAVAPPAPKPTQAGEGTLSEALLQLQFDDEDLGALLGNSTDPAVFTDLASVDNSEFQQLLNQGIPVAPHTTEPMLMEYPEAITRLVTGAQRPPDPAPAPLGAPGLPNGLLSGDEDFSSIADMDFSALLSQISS

[2] = target: EIF3E (prey, CIC format) (human) (UniProt P60228)
Sequence of EIF3E (prey, CIC format) (human) (P60228 whole entry): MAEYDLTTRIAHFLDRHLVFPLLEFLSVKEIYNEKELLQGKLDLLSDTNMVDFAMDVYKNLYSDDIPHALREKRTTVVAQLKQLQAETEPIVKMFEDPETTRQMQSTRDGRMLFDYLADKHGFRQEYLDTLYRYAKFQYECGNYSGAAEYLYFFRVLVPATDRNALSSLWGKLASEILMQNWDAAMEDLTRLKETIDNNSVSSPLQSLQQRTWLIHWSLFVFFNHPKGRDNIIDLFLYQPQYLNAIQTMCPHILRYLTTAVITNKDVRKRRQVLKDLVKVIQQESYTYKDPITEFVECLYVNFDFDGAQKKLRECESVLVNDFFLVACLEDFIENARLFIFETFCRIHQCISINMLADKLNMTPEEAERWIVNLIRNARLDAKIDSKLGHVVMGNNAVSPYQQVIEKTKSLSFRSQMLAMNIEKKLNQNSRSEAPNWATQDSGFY

[3] = target: T1, FRS2 (prey, CIC format) (human)

Binder	PLU mean [1]	PLU mean [2]	PLU mean [3]
B1	0.328	0.676	
B2			0.474
